Experimental data from the DeepSol protein solubility set.

Test: soluble on expression in E. coli; label from the status in PepcDB or PDB records

Sequence	soluble on expression in E. coli
MGSDKIHHHHHHGCSDVNQLLGNEESVDYKSTRRGDPLSIPPDLTQANNDPRYKAPASGTATYSQFQQQGLQQQASAGQNTNVLPERADMRVERDGDLRWLVIERPPEQLFPKVVDFWTDTGFTVSVNNPQAGIIETDWAENRAKIPESWLRQVLGSVLETAWDSGEREKFRTRVERVNGHTEIYITHNQMLEKRVGSDGGQVQWTHGKEDPGLNAAMLARLMVYLGTDVDAARKLVAQAEAAPQAPKVQSVRAEGAMLVVDESFDRAWRRVGVALDSGGFAVDDRDRSAGEYFVRYVDTDTGAQNEQPGFFSRLFSSDKKAQAPQYRIRLTGSGTQTQVTVLDANGQRDSSATAQRMLSVLKDKMV	not soluble
MATENPQTWALWLILSEMASDMQEDKKVAKILVLGPPKAGKTTLCTFLADFMEDGDTLKKGEDSGERERKFEFEFTSVYRPTKGVRIQEFETHEFFTEQEQNELGGTRRLEDSEIQLWDVSGDKKYEDCWPAIKENAEGVILVVNPEEHKGSDLQQWFYEFVEKENIDLSCVMVILNEQGAKKTNHEQISGFEILPKLRGVHHVAHHFGSEAMQVKMEVNSFMASVLKMDQRQMGSGVDHGLGYADEQEDDF	not soluble
MPNRHGSPRSSTRWAGLAIIALACLLSACSSTPTRSLTSRDTSGQRTHGAAINDPSAGLEEISIEAMALVGTPYRYGGNTPDSGFDCSGLVRYVVQRAASVNLPRTAAEMGTRGFALERRDVASGDLVFFNTTGRPNSHVGIYVGQNRFVHAPATGGTVRLEDMSKRYWASRYMGARRVVAVSNLPDLPASPAAATQSIAAGAAAPATAPAHANDDDPLGTLARARGTESSPLMSTRNAAPVVVPPADDDPIARFATQ	soluble
MSSGFAVSARSLALMATLAFAAPALAQQYGGEVDPEIRIQQLEDRLRTLTGQNEELQHRNRRLEEQVRQLQSGAGAPGAQQPAPNQATTPPAAPQQPYSQPAQQPAYGQQQPGYGQPQAPMVQPQPAAPQGGGRRGDAFDPSRDPNAPGVPRALGGGQLPMEQSGGMPAGRAAGAPMDLSNGNGGYVQGGYPQGGAPSAAKQPPAATAGGALTTQPPSQTPRDEFDLGIGYMQRRDYALAEETMRNFAQKYPDNPLTADAQYWLGESFFQRQMYRDAAEAFLAVTSKHEKSGKAPDALLRLGQSLSALKEKEAACAALGEIGRKYPQASSSVKKAVDREQKKLKC	not soluble
MSLGRLEKRFSFAFCSYWRPFRRPLRTHHGLWSVREGILIRLTDRETGCQGYGEIAPIPWFGSETLEQALAFCRQLPPLLSEAYILGIPEALPACRFGLEGAWLACRDPDWLNKDLSLLSFCELLGETLPPESYKDSYKDSVPLTRSVYKLKVGRDPMQQELEKLEQWLERLPPGSRLRLDANGGLSLAEAHRWLMVCDRLNQDSPGKIEFLEQPLPPDQHSHLVELSRQYQTPIALDESVACLEQLQAVHRSGWTGILVVKPSLVGSCIALREYLSRHPGLDLVFSSALETAIGAWHGLAWAGSLQAKTASPRAVGWGVGEFFQEGDPLTLTQLSAQERAALMQAVWERYSREGHHHHHH	soluble
MQQRMGAMPMAVLYPQSYLPHSAVPCPAPGYGNMFSGYGAAPVMMMVAGNAPYPVNAHFGHSATPMYFAMDPANSAAPMAVVADAASVCATPKAKLAHSGSGNSLSTQSCCSGGETPSLLSRSAASSTVKQRPHHDVNVWGFALVDQLHPSLQRIPVPLSCLHEPTMGISLYDNNVMSSSTRPCKSSVCLLHAQGLGCAEGSRCRCFHVSSAYLMQCRATSESLCCALHNCYYSQEMLGANCAPHVSGRCYALSLDDASKFPQDGEKPYLINLSLLNLSLTVGLETLPCVNSVYVVSWKKHVCRLSMDGLCKWTKDCGHIHVCRQLTRFLQDAETLSIVKTLQERTRPKSSAELYRDIILSENTLRYVRSVAALSLVAALLEAGDVEALKTLARAKCALLPSQSEALQKLGIALSGSDSTRSVTVSPKLLALLTPKGTN	not soluble
KESILAVLLYLFEYYFSENADLVRDRDSLQNSLIQVGFSPAEINKAFEWLDALAANRPTLTNPRVNGPVRVLHGPELDKLDVESRGFLLFLEQQGILNTEQRELVLDRAMALDQEELDLDDMKWVVLMVLFNQPGAEAAYAWMETQMFGNEPEQLH	not soluble
RRKPGKCPVTYGQCLMLNPPNFCEMDGQCKRDLKCCMGMCGKSCVSPVKA	soluble
GPGSMDPLCSPSAVSINGTPQTSVVNTSSTTSVVASPARPKLNRSVKFDPTIGGPLHSGDLSLDTSFVHGAGGDADAREHYGRRGRADEAATDSPLYSGDVLHEHEELLPFQLTREDVAAAFEFLDVNGSGLLTMGNLKHRLSAFYPHLTSKEYKFLVEDPSGSTGGGGTASSAARSAVAARHGGAADGCGGSTGGPTTSSLAQAASSARPSNLSFDDGGDAVHANGALSGEGVASGVGGSNATSARAGLDVDQLWDLINSFQQLQRTFGAAQAGQAEGQNAQNTRSAFNSSFDAYLVGTHGTQGIRSADIGFDAVGEAFRIYDPHNTHYVEEEVLSCIMARVGFGELTEEELAVLVSTADFDGDGRISLEDFRRLVSMKGRFEK	soluble
MGSDKIHHHHHHMSKFKVKRLTAHILMLKVINDMLKYSFHLTLTQVKLLNLLVKYDNSDSNSASIDRLLKMKEIQSKMALLQMLSYLNNHQWLLKGRDQRDQRKLTISINKMHIDKIEYMNNELSDYIERYFGQYTFDFSCDYVSYLLSSQELFRNLKCYLNMCQLTLEELYVLGILNLHKGQLTVKELQGEFHHPIFAVSPILKCLILKGLVKKERCELDERRVIVTIKREKFSKVTMLIQACYNYLEKGIQVKLNNK	not soluble
MGSDKIHHHHHHMTLALGRLDSITLLLPDPELFLYSYVRREAVLSSQIEGTQSTLTQLMLFELEESPGVPFDDVVEVSNYVAALDHGVARLKEGFPLSNRLIREMHTVLLFRGRGSNKGPGEFRRSQNWIGGTRPGNALFVPPPPHLVPQCMADLERFLHDENNPYPSVLKAALAHVQFETIHPFLDGNGRIGRLLIAFILHHDGILSRPLLYLSLYFKRHRETYYRLLDRVRTEGDWEAWTDFFLEGVRETAGNAVDTARRLIALFEADQQKIQSLGRSASSTLQVFQAFKERPLLTVGRISERTGLSFPAANQAVGRMEKKLGIVREITGRRRERAYAYDQYVAILNEGAEE	not soluble
MIDPREPIVTPVPVEELRPTQITVGMREVALKRQMIREQDAKKKTGAFLGKHMVPVVLGPKNRNYVTDHHHLARALLEEGVKDVLVTVISDLSALDKDTFLFVLDNRGWMHPFDESGRRRDYSAIPKTIGELIDDPYRSMAGELRRMGGFAKDTTPFSEFIWADFLRRRIDRNAVAKNFDKAMKEALSLAKGKDADYLPGWCGPTSDAAALEHHHHHH	soluble
QEARTGNDIAQLPAISVTGREISDLTEGTNAYTTEAMSTATGLTLSPRETPQSVSVVTRQQIEDQGLTDTGAILATAPGISVTRSDSNRYSFSARGFTIDNFQFDGLVSPILSQWNYGSTDMDAAIYDHVEIVRGATGLMTGSGNPSAAVNFVRKRPLREFAATFNASVGSWDYVRGDADISVPITEDGRIRSRLVAAYSQGDSYVHFLDTRRRTFYGVVSADLTPDTVLTTSVEYQHNHSNGFGSGFPLFYSDGSRTDFNRSVANNAPWARQDTEATTYFVDLTHRFTNDWKLRAAYSHTDGRYLMKHVYRGGYPDRHTGIIAAPPAFSNYDGNLDRDDIHFSLSAPFEAFGLRHEVALGWMSIDNHSDIQRYAMVGPAPAIGSFFDWRRAGSHHHHHHHIQEPSWADTLSPADDVRTKQTGAYLVGRFALAEPLHLIVGDRWSDWKTKQMYFGSRREYRIKNQFTPYAGLTYDINDTYTAYASYTEIFQPQNARDTSGGILPPIKSKSYELGLKAAYLEGRLNTSAALFQTRQDNLAQVIPGSSIPGFPNMQASRAASGAKVEGIDLEASGQILPDWNIGASYTHFTTKDASGNPINTNHPRSLFKLYTTYRLPGALHRLTVGGGVDWQSRMYQAAASPRGNVEVEQDSYALVSLMARFDFNKKLSATLNVNNLFDKKYYDQIGFYSQGWWGAPRNVMLNLRAQY	soluble
MYLLEINVFEGLNKKELSMIEVAHAILEQHADVMDFSDLVNQIQNYLGKSDSEIRDQLAQFYTDLNIDGSFISLGDNRWGLRSWYPIDSIDEEVTHGLEEDEEDAPRRRKRKKVNAFITNPNDEDVIDYNDDDPEDAELTNDDEEDILYDDEEDEDEEIKAYNSDLQEIGADSDDDEEDIPQIEEDLTIIDDDDVEDEDDFDDEYSEE	not soluble
MSLRIIHICLWLLTGIFAEVSLSAQNPFIYHKGKTYKDVAAYRMEEIIDLNTHTPSTPILYEQQVPEHQSTLSYKVALPLYVRGIFFSRDSRPGDYQWPNNTNRLLPWMFNHLEDLTRSDYASIPSNALPSASGDALLLELADGEYLFAKAIAGSNSLSWFQVNQDGTLTLYVSTLGEDALTGRLPLLIFRKSSSVYHVFSDAYDSLIADKAVSALRKRADKQYFNAFDYLGWCTWEHYHYDIDETKILNDIDAIEASGIPVRYVLIDDGHIANKNRQLTSLVPDKKRFPNGWSRIMKRKQADKIRWIGLWYSLSGYWMGISAENDFPPEIRQVLHSYNGSLLPGTSTEKIETWYEYYVRTMKEYGFDFLKIDNQSFTLPLYMGGTQVIRQAKDCNLALEHQTHRMQMGLMNCMAQNVLNIDHTLYSSVTRASIDYKKYDENMAKSHLFQSYTNTLILGQTVWPDHDMFHSCDTVCGSLMARSKAISGGPVYLSDSPSEFIADNIRPLIDETGKIFRPAAPAIPTPESILTNPLQSGKAYREGHHHHHH	soluble
MGSDKIHHHHHHMQIEMTGITKAFGPVPVLKGVDFTLATGEIHALMGENGAGKSTLMKILTGVHKADQGTILVDGVEQQYKNPKLAEEAGIAFIHQELNILPDLTVTENLFLGRELKSRFGVLKQAEMKRLAERELAELNVFMDVNQLARTLSVGQQQMIEIAKALMTDAKVIIMDEPTAALTEREIRALFSVATALREQGVSIVYISHRMEEIFELCDRITVLRDGVSVSTHRIADTSFEQIVREMVGREMGERYPERQVTLGQTVLEVTGATGKRFEDVSFSVRAGEIVGFSGLMGAGRTEVMRGLFGIDRMKAGTISLNGKTIKIKSPHDAIKQGLGFLTEDRKGEGLFLDFSLRENISLPTIRSLSKSGVISDQSERQFAEGYLKSLSVRHSSMDQPAKSLSGGNQQKVVLAKWLGTKPDVLILDEPTRGVDVGAKKEIYMIMDELAATGVAIIMISSDLPEILGMSDRVYVMREGQMSGMLNQEEATQESIMTLATGGQ	not soluble
NVRVITDENWRELLEGDWMIEFYAPWCPACQNLQPEWESFAEWGEDLEVNIAKVDVTEQPGLSGRFIINALPTIYHCKDGEFRRYQGPRTKKDFINFISDKEWKSIEPVSSWF	soluble
MARILAIDDEDGILYIIKSALEKEGHEVTAVSNPLTIPKEKFCHYDLILLDVMMPEIDGFTLCKEIRDFVDSPIVFLTAKTMEKDLITGLSLGGDDYITKPFGIGELRARVSAHVRREHREKQNAFFLSGLTFHLSCKEIWYDDTSIAFTKSEYGICEYLALNHGQVFSREKIYENVFGYEGESDNQVIVEHIKNIRHKLSKYGMNPIETVWGIGYKWRK	not soluble
HAIFERHENDLHCEVPISFATAALGGSIEVPTLEGRVTLKIPAETQTGKVFRLRSKGMKSVRGYGQGDLLCKVVVETPVNLSREQKELLNKLQDSLENAKGTH	not soluble
MSLSFNADEVRFLIDNLPDIDAATGDLALTKKTMISDVAALRARFGEHGRAVAELAGARRSVAGKLPVDWLMCHDSAQQATPMQVSGVRARRLVTALGEGTTAVDVTCSIGTEGHAVGQVGMGYIGSDLDQARLLMARYNLGGGVDKHPPHLLRADALAPAVTGADVIIADPARRAGGRRITDPAQLLPPLPDLLTAWEGHAMAVKCAPGLDFSGWTGLVSLVSVDGGVKEACLYTPDLADGETREAVILRGDRMDRITDALDDAPGEQLAREPGEFIIDPDGAVVRAGLVRHYAVREGLWMLDERIAYLTGDRIPAGTSGFRFIEQVPLKKLKGALTAHGAGSVEILVRGVDVDPDQLRKKLGLKGDRAMSVVITRIGSAGVALVCGAREWNGEGHHHHHH	soluble
